Data published in PMC7589614.

How the values were obtained:
AGR2 = AGR2 (UniProt O95994 21-175); assay: porous silicon RIFTS (EOT) biosensor; apparent, mass-transfer limited; Hill fit R2 0.9951; Selection buffers listed (assay buffer and temperature not stated in material): AGR2 137 mM NaCl, 20 mM KCl, 10 mM Na2HPO4, 2 mM KH2PO4 pH 7.4; 6H7 50 mM K2HPO4
protein A = protein A (Staphylococcus aureus, UniProt P02976 37-485); assay: porous silicon RIFTS (EOT) biosensor; apparent, mass-transfer limited; Hill fit R2 0.9177; Selection buffers listed (assay buffer and temperature not stated in material): AGR2 137 mM NaCl, 20 mM KCl, 10 mM Na2HPO4, 2 mM KH2PO4 pH 7.4; 6H7 50 mM K2HPO4
Sequence of protein A (P02976 37-485): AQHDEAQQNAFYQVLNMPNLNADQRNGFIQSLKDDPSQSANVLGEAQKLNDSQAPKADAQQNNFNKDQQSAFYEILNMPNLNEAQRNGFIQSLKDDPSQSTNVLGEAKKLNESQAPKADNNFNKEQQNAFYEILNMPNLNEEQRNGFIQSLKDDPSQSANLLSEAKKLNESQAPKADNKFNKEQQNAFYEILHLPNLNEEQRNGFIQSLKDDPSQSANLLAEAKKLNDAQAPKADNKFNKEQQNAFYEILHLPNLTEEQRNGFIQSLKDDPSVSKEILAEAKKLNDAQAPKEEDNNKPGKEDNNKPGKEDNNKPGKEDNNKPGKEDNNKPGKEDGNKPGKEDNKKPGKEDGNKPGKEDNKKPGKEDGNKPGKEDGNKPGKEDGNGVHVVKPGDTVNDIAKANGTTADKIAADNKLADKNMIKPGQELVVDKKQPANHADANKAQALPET

tyrosinase = target: T1, tyrosinase (Bacillus megaterium (printed …, UniProt B2ZB02 1-297)); assay: porous silicon RIFTS (EOT) biosensor; apparent, mass-transfer limited; Hill fit R2 0.9731; Selection buffers listed (assay buffer and temperature not stated in material): AGR2 137 mM NaCl, 20 mM KCl, 10 mM Na2HPO4, 2 mM KH2PO4 pH 7.4; 6H7 50 mM K2HPO4
T1 sequence: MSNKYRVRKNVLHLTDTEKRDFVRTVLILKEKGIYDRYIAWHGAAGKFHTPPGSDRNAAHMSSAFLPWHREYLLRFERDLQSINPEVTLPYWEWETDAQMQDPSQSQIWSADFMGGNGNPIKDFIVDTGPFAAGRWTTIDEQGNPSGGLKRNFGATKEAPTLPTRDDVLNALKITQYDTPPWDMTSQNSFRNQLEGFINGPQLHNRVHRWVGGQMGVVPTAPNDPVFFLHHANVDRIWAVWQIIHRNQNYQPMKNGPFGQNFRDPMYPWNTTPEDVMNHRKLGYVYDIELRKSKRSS

Sequence of AGR2 (O95994 21-175): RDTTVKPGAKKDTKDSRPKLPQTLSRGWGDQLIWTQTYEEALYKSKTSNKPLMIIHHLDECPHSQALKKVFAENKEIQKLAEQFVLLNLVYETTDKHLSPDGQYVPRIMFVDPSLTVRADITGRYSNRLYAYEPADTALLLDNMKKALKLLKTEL

B1: anti-AGR2 aptamer (ssDNA)
DNA: TCTCGGACGCGTGTGGTCGGGTGGGAGTTGTGGGGGGGGGTGGGAGGGTT
modifications: 5'-amino
Work on B1 yielded a Kd (AGR2) of 21 ± 1 µM.

B2: anti-protein A aptamer PA#2/8[S1-58] (ssDNA)
DNA: ATACCAGCTTATTCAATTAGCAACATGAGGGGGATAGAGGGGGTGGGTTCTCTCGGCT
modifications: 3'-amino-C6
Binder B2 has a Kd (protein A) of 14 ± 1 µM.

B3: anti-his tag aptamer 6H7 (ssDNA)
DNA: GCTATGGGTGGTCTGGTTGGGATTGGCCCCGGGAGCTGGC
modifications: 5'-amino
In the case of B3, the Kd (tyrosinase) is reported as 31 ± 7 µM.
